How the values were obtained:
[1] = biological target: T1, human A33 antigen, full length, on cells (human, UniProt Q99795 22-319); experiment: IHC on LS174T FFPE sections, 20ug/mL
T1 construct: CHO cells transfected with full length A33 cDNA (A33-CHO), or endogenous antigen of LS174T (colon) and AsPC-1 (pancreatic) tumour cells; The cell line is named under assay; also called A33-CHO; A33 antigen on LS174T cells
T1 sequence: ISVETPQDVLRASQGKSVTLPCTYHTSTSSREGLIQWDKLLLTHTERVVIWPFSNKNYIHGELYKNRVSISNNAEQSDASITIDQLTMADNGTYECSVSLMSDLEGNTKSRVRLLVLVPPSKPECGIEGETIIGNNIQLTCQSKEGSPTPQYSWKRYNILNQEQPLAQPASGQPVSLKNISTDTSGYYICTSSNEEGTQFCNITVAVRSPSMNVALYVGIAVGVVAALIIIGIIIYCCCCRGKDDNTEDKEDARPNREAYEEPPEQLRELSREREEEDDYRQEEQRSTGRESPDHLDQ
Method: (§1) Human IgG ELISA, rH-GPA33 Binding ELISA, cell Flow Cytometry (LS174T or AsPAC1), IHC staining (LS174T FFPE, tumor FFPE and Frozen tumor sections) and Coomassie blue staining of SDS-PAGE gel were used for the screening. Antibody in the culture supernatant was purified by Protein A/G purification in the column and dissolved in PBS buffer after three times dialysis. Aliquots of the antibodies were kept at -20° C. for storage.
(§2) Each combination was produced by transient transfection by using Expi293 Expression System Kit (Gibco, cat# A14635). […] Methods of Human IgG ELISA, rH-GPA33 Binding ELISA, LS174T cell Flow Cytometry, IHC staining on LS174T FFPE sections and Coomassie blue staining of SDS-PAGE gel were used for the initial screening.

[2] = biological target: T1, human A33 antigen, full length, on cells; experiment: flow cytometry on LS174T cells, 0.37ug/mL
Method: as §1, §2

[3] = biological target: T2, human recombinant A33 antigen (human, UniProt Q99795 22-235); experiment: rH-GPA33 binding ELISA, 2ug/mL of 31.1, supernatant
T2 construct: also called rH-GPA33; rHGPA33
T2 sequence: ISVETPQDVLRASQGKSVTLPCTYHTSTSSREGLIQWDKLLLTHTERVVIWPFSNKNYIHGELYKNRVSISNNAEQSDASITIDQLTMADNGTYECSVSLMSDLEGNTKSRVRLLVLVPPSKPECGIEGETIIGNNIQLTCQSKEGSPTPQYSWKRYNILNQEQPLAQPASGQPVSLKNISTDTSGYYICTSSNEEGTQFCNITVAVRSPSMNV
Method: as §1, §2

[4] = biological target: T1, human A33 antigen, full length, on cells; experiment: IHC on LS174T FFPE sections, 20ug/mL, repeat result
[5] = biological target: T1, human A33 antigen, full length, on cells; experiment: IHC on LS174T FFPE sections, 20ug/mL, first result

B1: humanized 31.1 antibody #9 (sdr-HC + cdr-LC) (antibody, human IgG1, kappa, V domains shown)
VH: QIQLVQSGAEVKKPGASVKVSCKASGYTFTNYGMNWVRQAPGKGLEWMGWINPYTGEPTYAQKFQGRVTFTLDTSISTAYMELSRLRSDDTAVYFCARAYYGKYFDYWGQGTTVTVSS
VL: SIVMTQSPSSLSASVGDRVTITCKASQSVSNDVAWYQQKPGQSPKLLIYYASNRYTGVPDRFSGSGYGTDFTLTISSLQPEDFAVYFCQQDYSSPLTFGAGTKLEIKR
notes: Full heavy and light chains; transient Expi293 expression, tested as culture supernatant; also called Sample ID 9; sdr31.1-HC + cdr31.1-LC
H-Score of IHC [1]: 150 H-Score | MFI [2]: 6.65 MFI | OD Value of rH-GPA33 Binding ELISA [3]: 0.07 OD

B2: humanized 31.1 antibody #1 (cdr-HC + cdr-LC) (antibody, human IgG1, kappa, V domains shown)
VH: QIQLVQSGAEVKKPGASVKVSCKASGYTFTNYGMNWVKQAPGKGLKWMGWINTYTGEPTYADDFKGRFAFTLDTSISTAYMELSRLRSDDTAVYFCARAYYGKYFDYWGQGTTVTVSS
VL: SIVMTQSPSSLSASVGDRVTITCKASQSVSNDVAWYQQKPGQSPKLLIYYASNRYTGVPDRFSGSGYGTDFTLTISSLQPEDFAVYFCQQDYSSPLTFGAGTKLEIKR
notes: Full heavy (448 aa) and light (214 aa) chains; transient Expi293 expression, tested as culture supernatant; also called Sample ID 1; cdr31.1-HC + cdr31.1-LC
H-Score of IHC [1]: 0 H-Score | MFI [2]: 878 MFI | OD Value of rH-GPA33 Binding ELISA [3]: 0.8 OD

B3: humanized 31.1 antibody #10 (sdr-HC + abb-LC) (antibody, human IgG1, kappa, V domains shown)
VH: QIQLVQSGAEVKKPGASVKVSCKASGYTFTNYGMNWVRQAPGKGLEWMGWINPYTGEPTYAQKFQGRVTFTLDTSISTAYMELSRLRSDDTAVYFCARAYYGKYFDYWGQGTTVTVSS
VL: SIQMTQSPSSLSASVGDRVTITCRASQSVSNDVAWYQQKPGQSPKLLIYYASNRYSGVPDRFSGSGYGTDFTLTISSLQPEDFAVYFCQQDYSSPLTFGAGTKLEIKR
notes: Full heavy and light chains; transient Expi293 expression, tested as culture supernatant; also called Sample ID 10; sdr31.1-HC + abb31.1-LC
H-Score of IHC [4]: 115 H-Score | MFI [2]: 6.2 MFI | H-Score of IHC [5]: 240 H-Score | OD Value of rH-GPA33 Binding ELISA [3]: 0.07 OD

B4: humanized 31.1 antibody #3 (cdr-HC + sdr-LC) (antibody, human IgG1, kappa, V domains shown)
VH: QIQLVQSGAEVKKPGASVKVSCKASGYTFTNYGMNWVKQAPGKGLKWMGWINTYTGEPTYADDFKGRFAFTLDTSISTAYMELSRLRSDDTAVYFCARAYYGKYFDYWGQGTTVTVSS
VL: SIQMTQSPSSLSASVGDRVTITCRASQSISNDLAWYQQKPGQSPKLLIYYASNRYTGVPDRFSGSGYGTDFTLTISSLQPEDFAVYFCQQDYSSPLTFGAGTKLEIKR
notes: Full heavy and light chains; transient Expi293 expression, tested as culture supernatant; also called Sample ID 3; cdr31.1-HC + sdr31.1-LC
H-Score of IHC [1]: 0 H-Score | MFI [2]: 520 MFI | OD Value of rH-GPA33 Binding ELISA [3]: 0.29 OD

B5: humanized 31.1 antibody #12 (sdr-HC + ven-LC) (antibody, human IgG1, kappa, V domains shown)
VH: QIQLVQSGAEVKKPGASVKVSCKASGYTFTNYGMNWVRQAPGKGLEWMGWINPYTGEPTYAQKFQGRVTFTLDTSISTAYMELSRLRSDDTAVYFCARAYYGKYFDYWGQGTTVTVSS
VL: SIVMTQSPSSLSVSVGDRVTITCKASQSVSNDVAWYQQKPGQSPKLLIYYASNRYTGVPDRFSGSGYGTDFTFTISSVQPEDLAVYFCQQDYSSPLTFGAGTKLELKR
notes: Full heavy and light chains; transient Expi293 expression, tested as culture supernatant; also called Sample ID 12; sdr31.1-HC + ven31.1-LC
H-Score of IHC [1]: 30 H-Score | MFI [2]: 10.6 MFI | OD Value of rH-GPA33 Binding ELISA [3]: 0.06 OD

B6: humanized 31.1 antibody #4 (cdr-HC + ven-LC) (antibody, human IgG1, kappa, V domains shown)
VH: QIQLVQSGAEVKKPGASVKVSCKASGYTFTNYGMNWVKQAPGKGLKWMGWINTYTGEPTYADDFKGRFAFTLDTSISTAYMELSRLRSDDTAVYFCARAYYGKYFDYWGQGTTVTVSS
VL: SIVMTQSPSSLSVSVGDRVTITCKASQSVSNDVAWYQQKPGQSPKLLIYYASNRYTGVPDRFSGSGYGTDFTFTISSVQPEDLAVYFCQQDYSSPLTFGAGTKLELKR
notes: Full heavy and light chains; transient Expi293 expression, tested as culture supernatant; also called Sample ID 4; cdr31.1-HC + ven31.1-LC
H-Score of IHC [1]: 0 H-Score | MFI [2]: 726 MFI | OD Value of rH-GPA33 Binding ELISA [3]: 1.27 OD

B7: humanized 31.1 antibody #7 (abb-HC + sdr-LC) (antibody, human IgG1, kappa, V domains shown)
VH: QIQLVQSGAEVKKPGASVKVSCKASGYTFTNYGMNWVRQAPGKGLEWMGWINTYTGEPTYAQKFQGRVTFTLDTSISTAYMELSRLRSDDTAVYFCARAYYGKYFDYWGQGTTVTVSS
VL: SIQMTQSPSSLSASVGDRVTITCRASQSISNDLAWYQQKPGQSPKLLIYYASNRYTGVPDRFSGSGYGTDFTLTISSLQPEDFAVYFCQQDYSSPLTFGAGTKLEIKR
notes: Full heavy and light chains; transient Expi293 expression, tested as culture supernatant; also called Sample ID 7; abb31.1-HC + sdr31.1-LC
H-Score of IHC [1]: 120 H-Score | MFI [2]: 481 MFI | OD Value of rH-GPA33 Binding ELISA [3]: 0.2 OD

B8: humanized 31.1 antibody #2 (cdr-HC + abb-LC) (antibody, human IgG1, kappa, V domains shown)
VH: QIQLVQSGAEVKKPGASVKVSCKASGYTFTNYGMNWVKQAPGKGLKWMGWINTYTGEPTYADDFKGRFAFTLDTSISTAYMELSRLRSDDTAVYFCARAYYGKYFDYWGQGTTVTVSS
VL: SIQMTQSPSSLSASVGDRVTITCRASQSVSNDVAWYQQKPGQSPKLLIYYASNRYSGVPDRFSGSGYGTDFTLTISSLQPEDFAVYFCQQDYSSPLTFGAGTKLEIKR
notes: Full heavy and light chains; transient Expi293 expression, tested as culture supernatant; also called Sample ID 2; cdr31.1-HC + abb31.1-LC
H-Score of IHC [1]: 0 H-Score | MFI [2]: 821 MFI | OD Value of rH-GPA33 Binding ELISA [3]: 0.86 OD

Reference: patent US20230295298A1 (PRECISION BIOLOGICS, published 2023)
